Reference: paper PMC7031059
Changes are numbered by the printed parent chain.

B1: 5mT2 (GGG to TTT) (dsDNA)
DNA 1: CATGTGTCATGGTTTTCTCAATCAAGTGGC
DNA 2: GCCACTTGATTGAGAAAACCATGACACATG
B2: 6T (PpDAM6 promoter site-II) (dsDNA)
DNA 1: GGTGGGCCCAATCAAGTGACATGACAGCGA
DNA 2: TCGCTGTCATGTCACTTGATTGGGCCCACC
B3: ABF2-F (PpABF2 promoter TBS) (dsDNA)
DNA 1: ACCTAACCTAAGTGGGACCATGCCCTTTTT
DNA 2: AAAAAGGGCATGGTCCCACTTAGGTTAGGT
B4: 6mT (GGGCCC to AAATTT) (dsDNA)
DNA 1: GGTAAATTTAATCAAGTGACATGACAGCGA
DNA 2: TCGCTGTCATGTCACTTGATTAAATTTACC
B5: 5T2 (dsDNA)
DNA 1: B1 DNA 1 with T14G, T15G, T16G
DNA 2: B1 DNA 2 with A15C, A16C, A17C

These binders were tested against PpTCP20-GST (Prunus persica var. nectarina cv. …, UniProt A0A251Q833 1-310) (assay: EMSA).

Row | Binder | binding result
1 | B1 | no binding
2 | B2 | binds
3 | B3 | binds
4 | B4 | no binding
5 | B5 | binds
